# Reference: article PMC11635053, “Development of a homotrimeric PSMA radioligand based on the NOTI chelating platform” (EJNMMI Radiopharmacy and Chemistry, 2024)
# Columns and labels:
# human serum proteins = test: in vitro; type: in vitro ADME; conditions: male, Protein binding
# Experimental: To determine the protein bound fraction of each trimeric radiotracer, 100 μL of the radiolabeling solution of the corresponding ^68Ga-labeled conjugate were added to preheated (37 °C) 1000 μL human serum (male, AB, Sigma Aldrich, USA) in triplicates. Samples were incubated for 1 h at 37 °C. After cooling to r.t., the samples were centrifuged utilizing molecular cutoff (30 kDa) centrifuge tubes at 4 G for 5 min at 4 °C. The filters were additionally rinsed with PBS buffer (2 × 100 μL). The background subtracted activity in the filters and the filtrates were determined in a Gamma counter and the percentage of protein bound fractions were calculated.
# PSMA = target: T1, PSMA (Homo sapiens, UniProt Q04609); test: Competitive binding assay in LNCaP cells with [177Lu]Lu-PSMA-617 as radioligand; conditions: LNCaP cells, radioligand [177Lu]Lu-PSMA-617, 2 h at r.t.; read-out: IC50 (half maximum competitive inhibitory concentration)
# T1 construct: host or cells: LNCaP
# T1 sequence (Q04609 whole entry): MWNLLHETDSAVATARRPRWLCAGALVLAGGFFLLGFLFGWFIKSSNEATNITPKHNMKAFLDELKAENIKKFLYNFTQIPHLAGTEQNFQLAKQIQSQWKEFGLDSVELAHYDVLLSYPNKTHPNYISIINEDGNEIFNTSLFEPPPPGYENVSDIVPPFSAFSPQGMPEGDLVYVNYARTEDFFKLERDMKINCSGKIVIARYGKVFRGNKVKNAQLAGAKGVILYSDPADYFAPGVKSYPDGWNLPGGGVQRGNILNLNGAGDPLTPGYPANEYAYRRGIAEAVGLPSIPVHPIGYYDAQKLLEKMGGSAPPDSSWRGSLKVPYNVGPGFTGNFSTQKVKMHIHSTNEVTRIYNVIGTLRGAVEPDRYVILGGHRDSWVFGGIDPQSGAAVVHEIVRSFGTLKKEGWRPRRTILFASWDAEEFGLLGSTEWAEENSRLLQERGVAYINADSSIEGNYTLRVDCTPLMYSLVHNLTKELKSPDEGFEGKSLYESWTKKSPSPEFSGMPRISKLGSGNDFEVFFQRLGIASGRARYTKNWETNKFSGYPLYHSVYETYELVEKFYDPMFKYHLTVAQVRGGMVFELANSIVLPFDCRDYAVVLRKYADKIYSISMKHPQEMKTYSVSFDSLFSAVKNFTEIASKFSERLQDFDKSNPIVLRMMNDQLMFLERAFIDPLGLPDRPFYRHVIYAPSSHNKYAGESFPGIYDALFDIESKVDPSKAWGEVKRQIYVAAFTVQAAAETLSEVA
# Experimental: In order to establish a structure–activity relationship, the binding affinity of the metal-free and ^natGa-complexes of the conjugates 7, 8, and 9 were determined in the PSMA-positive human prostate cancer cell line LNCaP by a competitive binding assay as previously reported using [^177Lu]Lu-PSMA-617 as the radioligand (Stemler et al. [2021]). The conjugate Glu-CO-Lys-Ahx-HBED-CC (PSMA-11) was included as the control.
# The competitive binding assay was carried out using a MultiScreen®HTS Vacuum Manifold system (Merck, Germany) with 96-well filter plates. Serial dilutions of the metal-free conjugates and corresponding ^natGa complexes were prepared to obtain 7 final concentrations ranging from 0 to 1000 nM for each compound. PSMA-11 was also tested as control. Experiments were performed twice in triplicate for each compound. Freshly prepared ^177Lu-labeled PSMA-617 was used as the radioligand. A volume of 1 μL of [^177Lu]Lu-PSMA-617 stock solution (2.83 μM) was added into each tube of the dilution series (radioligand concentration 3.14 nM). For the experiment, 10^5 LNCaP cells were seeded into each well. The final volume of each well was 150 μL (100 μL cells in medium + 50 μL inhibitor in PBS). The experiment was incubated for 2 h at r.t. in a plate shaker. Then, the supernatants were removed by vacuum. Wells were furthermore washed out with ice-cold PBS (3 × 200 μL, pH 7.4). The filters were punched into tubes for the subsequent quantification of the activity in a Gamma-counter. A nonlinear regression algorithm was applied by the software GraphPad Prism to determine the specific inhibitory concentrations of 50% for the tested radiotracers.
structure (smiles),measurement,setting,value
"O=C(O)CC[C@H](NC(=O)N[C@@H](CCCCNC(=O)[C@H](Cc1ccc2ccccc2c1)NC(=O)[C@H]1CC[C@H](CNC(=O)CCCCn2ccnc2CN2CCN(Cc3nccn3CCCCC(=O)NC[C@H]3CC[C@H](C(=O)N[C@@H](Cc4ccc5ccccc5c4)C(=O)NCCCC[C@H](NC(=O)N[C@@H](CCC(=O)O)C(=O)O)C(=O)O)CC3)CCN(Cc3nccn3CCCCC(=O)NC[C@H]3CC[C@H](C(=O)N[C@@H](Cc4ccc5ccccc5c4)C(=O)NCCCC[C@H](NC(=O)N[C@@H](CCC(=O)O)C(=O)O)C(=O)O)CC3)CC2)CC1)C(=O)O)C(=O)O [^nat/68Ga-9, metal not drawn]",fraction unbound at 1 h,human serum proteins,< 0.05
same,IC50,PSMA,4.8 nM
